These results are taken from the supplement of paper PMC11246515.

± gives the standard deviation of the averaged measurements.

The series can be described thus: total protein half-life in vivo (active degradation + dilution); higher = more stable protein.
The mark [1] stands for this setting: E. coli NCM3722 delta-clpP delta-lon delta-hslV, growth: N-lim chemostat, doubling time 6 h.
The mark [2] stands for this setting: E. coli NCM3722 delta-clpP, growth: N-lim chemostat, doubling time 6 h.
The mark [3] stands for this setting: E. coli NCM3722 delta-hslV, growth: N-lim chemostat, doubling time 6 h.
Where [4] appears, read: E. coli NCM3722 delta-lon, growth: N-lim chemostat, doubling time 6 h.
Where [5] appears, read: E. coli NCM3722 delta-smpB, growth: N-lim chemostat, doubling time 6 h.
Setting [6] is: wild type E. coli NCM3722, growth: C-lim chemostat, doubling time 3 h.
[7] abbreviates: wild type E. coli NCM3722, growth: C-lim chemostat, doubling time 6 h.
Setting [8] is: wild type E. coli NCM3722, growth: C-lim chemostat, doubling time 12 h.
Where [9] appears, read: wild type E. coli NCM3722, growth: N-lim chemostat, doubling time 6 h.
Setting [10] is: wild type E. coli NCM3722, growth: N-lim chemostat, doubling time 12 h.
[11] abbreviates: wild type E. coli NCM3722, growth: P-lim chemostat, doubling time 6 h.
Setting [12] is: wild type E. coli NCM3722, growth: P-lim chemostat, doubling time 12 h.

Turning to “MLNQELELSLNMAFARAREHRHEFMTVEHLLLALLSNPSAREALEACSVDLVALRQELEAFIEQTTPVLPASEEERDTQPTLSFQRVLQRAVFHVQSSGRNEVTGANVLVAIFSEQESQAAYLLRKHEVSRLDVVNFISHGTRKDEPTQSSDPGSQPNSEEQAGGEERMENFTTNLNQLARVGGIDPLIGREKELERAIQVLCRRRKNNPLLVGESGVGKTAIAEGLAWRIVQGDVPEVMADCTIYSLDIGSLLAGTKYRGDFEKRFKALLKQLEQDTNSILFIDEIHTIIGAGAASGGQVDAANLIKPLLSSGKIRVIGSTTYQEFSNIFEKDRALARRFQKIDITEPSIEETVQIINGLKPKYEAHHDVRYTAKAVRAAVELAVKYINDRHLPDKAIDVIDEAGARARLMPVSKRKKTVNVADIESVVARIARIPEKSVSQSDRDTLKNLGDRLKMLVFGQDKAIEALTEAIKMARAGLGHEHKPVGSFLFAGPTGVGKTEVTVQLSKALGIELLRFDMSEYMERHTVSRLIGAPPGYVGFDQGGLLTDAVIKHPHAVLLLDEIEKAHPDVFNILLQVMDNGTLTDNNGRKADFRNVVLVMTTNAGVRETERKSIGLIHQDNSTDAMEEIKKIFTPEFRNRLDNIIWFDHLSTDVIHQVVDKFIVELQVQLDQKGVSLEVSQEARNWLAEKGYDRAMGARPMARVIQDNLKKPLANELLFGSLVDGGQVTVALDKEKNELTYGFQSAQKHKAEAAH [P0ABH9]”, the “total protein half-life in vivo” value under setting [1] is 6.61 ± 0.43 h; the “total protein half-life in vivo” value under setting [2] is 6.29 ± 0.55 h; the “total protein half-life in vivo” value under setting [3] amounted to 0.877 ± 0.22 h; the “total protein half-life in vivo” value under setting [4] is 0.987 ± 0.069 h; the “total protein half-life in vivo” value under setting [5] amounted to 0.823 ± 0.015 h; the “total protein half-life in vivo” value under setting [6] was 0.7994 ± 0.0018 h. In addition, the “total protein half-life in vivo” value was 0.97 ± 0.039 h under setting [7]; 1.14 ± 0.28 h under setting [8]; 1.03 ± 0.18 h under setting [9]; 1.046 ± 0.0038 h under setting [10]; 0.795 ± 0.2 h under setting [11]; 1.56 ± 0.78 h under setting [12].
On to “MKIAFIGEAVSGFGGMETVIRDVITTFRQQHIQSEMFFFCRNDKMDKGWLEGIKYSCSFSNIRLGFLRRAKHIHALSKWLQEYQPDIVICIDVISCLFAAKARKKSGIDMPVFSWPHFSLDHKKHAEYITCADYHLAISSGIKQQMINRGVAESTINVIFNPVETKDSVIPAPEEGETATFIYVGRMKFEGQKRVKDLLDGLSQAKGNWKLHVLGDGSDFEKCQAYGRELNIDDRIVWYGWQQYPWELVQQDIEKVSALLLTSSFEGFPMTLLEALSWGIPCISADCVSGPADIIQPDVNGHLYQPGDIAGFVTLLNKYIAGEIHIEHEKIPASIDEFYQSKYYDRLHKVIISAISRRK”, for which the “total protein half-life in vivo” value runs as follows: under setting [1], 5.73 ± 0.45 h; under setting [4], 6.05 ± 0.67 h; under setting [5], 5.9 ± 0.06 h; under setting [6], 2.96 ± 0.11 h; under setting [8], 10.9 ± 0.65 h; under setting [9], 6.03 ± 1.8 h. The “total protein half-life in vivo” value turned out to be 12.1 ± 1.4 h under setting [10], 6.21 ± 0.58 h under setting [11] and 11.8 ± 0.7 h under setting [12].
Take “MDVSYLLDSLNDKQREAVAAPRSNLLVLAGAGSGKTRVLVHRIAWLMSVENCSPYSIMAVTFTNKAAAEMRHRIGQLMGTSQGGMWVGTFHGLAHRLLRAHHMDANLPQDFQILDSEDQLRLLKRLIKAMNLDEKQWPPRQAMWYINSQKDEGLRPHHIQSYGNPVEQTWQKVYQAYQEACDRAGLVDFAELLLRAHELWLNKPHILQHYRERFTNILVDEFQDTNNIQYAWIRLLAGDTGKVMIVGDDDQSIYGWRGAQVENIQRFLNDFPGAETIRLEQNYRSTSNILSAANALIENNNGRLGKKLWTDGADGEPISLYCAFNELDEARFVVNRIKTWQDNGGALAECAILYRSNAQSRVLEEALLQASMPYRIYGGMRFFERQEIKDALSYLRLIANRNDDAAFERVVNTPTRGIGDRTLDVVRQTSRDRQLTLWQACRELLQEKALAGRAASALQRFMELIDALAQETADMPLHVQTDRVIKDSGLRTMYEQEKGEKGQTRIENLEELVTATRQFSYNEEDEDLMPLQAFLSHAALEAGEGQADTWQDAVQLMTLHSAKGLEFPQVFIVGMEEGMFPSQMSLDEGGRLEEERRLAYVGVTRAMQKLTLTYAETRRLYGKEVYHRPSRFIGELPEECVEEVRLRATVSRPVSHQRMGTPMVENDSGYKLGQRVRHAKFGEGTIVNMEGSGEHSRLQVAFQGQGIKWLVAAYARLESV”: the “total protein half-life in vivo” value amounted to 6.25 ± 0.18 h under setting [1]; 5.48 ± 0.56 h under setting [2]; 3.81 ± 0.25 h under setting [3]; 4.29 ± 0.12 h under setting [4]; 3.45 ± 0.13 h under setting [5]; 2.96 ± 0.033 h under setting [6]. Also, the “total protein half-life in vivo” value is 4.72 ± 0.42 h under setting [7]; 8.03 ± 1.1 h under setting [8]; 3.781 ± 0.029 h under setting [9]; 5.67 ± 0.15 h under setting [10]; 4.83 ± 0.25 h under setting [11]; 7.8 ± 0.18 h under setting [12].
As for “MKESNSRREFLSQSGKMVTAAALFGTSVPLAHAAVAGTLNCEANNTMKITDPHYYLDNVLLETGFDYENGVAVQTRTARQTVEIQDGKIVALRENKLHPDATLPHYDAGGKLMLPTTRDMHIHLDKTFYGGPWRSLNRPAGTTIQDMIKLEQKMLPELQPYTQERAEKLIDLLQSKGTTIARSHCNIEPVSGLKNLQNLQAVLARRQAGFECEIVAFPQHGLLLSKSEPLMREAMQAGAHYVGGLDPTSVDGAMEKSLDTMFQIALDYDKGVDIHLHETTPAGVAAINYMVETVEKTPQLKGKLTISHAFALATLNEQQVDELANRMVVQQISIASTVPIGTLHMPLKQLHDKGVKVMTGTDSVIDHWSPYGLGDMLEKANLYAQLYIRPNEQNLSRSLFLATGDVLPLNEKGERVWPKAQDDASFVLVDASCSAEAVARISPRTATFHKGQLVWGSVAG”, the “total protein half-life in vivo” value runs as follows: under setting [1], 4.64 ± 0.15 h; under setting [2], 4.34 ± 0.53 h; under setting [3], 4.51 ± 0.31 h; under setting [4], 4.82 ± 0.11 h; under setting [5], 3.937 ± 0.008 h; under setting [6], 3.21 ± 0.41 h. For the same sequence, the “total protein half-life in vivo” value stood at 9.95 ± 0.62 h under setting [8]; 4.32 ± 0.17 h under setting [9]; 6.843 ± 0.056 h under setting [10]; 5.67 ± 0.43 h under setting [11]; 11.53 ± 0.036 h under setting [12].
For “MNGTIYQRIEDNAHFRELVEKRQRFATILSIIMLAVYIGFILLIAFAPGWLGTPLNPNTSVTRGIPIGVGVIVISFVLTGIYIWRANGEFDRLNNEVLHEVQAS [P0AF54]”, the “total protein half-life in vivo” value is, setting by setting: under setting [7], 5.84 ± 0.1 h; under setting [8], 8.72 ± 0.83 h.
Consider “MSTFKPLKTLTSRRQVLKAGLAALTLSGMSQAIAKDELLKTSNGHSKPKAKKSGGKRVVVLDPGHGGIDTGAIGRNGSKEKHVVLAIAKNVRSILRNHGIDARLTRSGDTFIPLYDRVEIAHKHGADLFMSIHADGFTNPKAAGASVFALSNRGASSAMAKYLSERENRADEVAGKKATDKDHLLQQVLFDLVQTDTIKNSLTLGSHILKKIKPVHKLHSRNTEQAAFVVLKSPSVPSVLVETSFITNPEEERLLGTAAFRQKIATAIAEGVISYFHWFDNQKAHSKKR”, for which the “total protein half-life in vivo” value reads like this: under setting [1], 5.02 ± 0.67 h; under setting [2], 5.75 ± 0.35 h; under setting [3], 4.89 ± 0.52 h; under setting [4], 4.977 ± 0.029 h; under setting [5], 4.41 ± 0.32 h; under setting [6], 2.23 ± 0.033 h. Moreover, the “total protein half-life in vivo” value turned out to be 3.5509 ± 0.0011 h under setting [7]; 5 ± 0.2 h under setting [8]; 5.08 ± 0.94 h under setting [9]; 8.42 ± 0.29 h under setting [10]; 4.48 ± 0.47 h under setting [11]; 8.52 ± 0.41 h under setting [12].
